Data on five variants can be found in paper PMC4960622, “Crystal structures of RidA, an important enzyme for the prevention of toxic side products” (Scientific Reports, 2016).

B1: Arabidopsis thaliana RidA, construct starting from S68 (AtRidA-S68), wild type [Arabidopsis thaliana] / itself (parent)
chain: STEKAPAALGPYSQAIKANNLVFLSGVLGLIPETGKFVSESVEDQTEQVLKNMGEILKASGADYSSVVKTTIMLADLADFKTVNEIYAKYFPAPSPARSTYQVAALPLNAKIEIECIATL

The variants in the assay derive from B1. Put plainly: size-exclusion chromatography (Superdex-75). The settings on record: with itself; 0.5 mg protein loaded; read off a plot. For orientation: SEC sorts molecules by how far they enter the pores of the column.
On to chain 1 K69A, for which the screen value is 12 mL.

Regarding chain 1 K69R, the screen value is 11.4 mL. The figure for chain 1 S99A is 11.6 mL; for chain 1 E115A it is 11.6 mL; for chain 1 S13A it is 11.4 mL.
